B1: δ3-42 (antibody, V domains shown)
VH: DVQLQESGPDLVKPSQSLSLTCTVTGYSITSGYNWHWIRQFPGNKLEWMGYIHYSGNTDYNPSLRSRISITRDTSKNQFFLHLNSVPTEDTATYYCARSGITTDWYFDVWGAGTTVTVSS
VL: QIVLSQSPAILSASPGEKVTMTCRASSSVNYMHWYQQKPGSSPKPWIYATSNLASGVPARFSGSGSGTSYSLTISKVEAEDAATYYCQQWSSHQPTFGAGTKLELK
B2: δ3-58 (antibody, V domains shown)
VH: EVKLVESGGGLVQPGGSLKLSCAASGFTFSSYAMSWVRQTPEKRLEWVAYIRDGGGGTYYPDTVEGRFTISRDNAKNTLYLQMSSLKSEDTAMYYCARHPPMNDWFLYWGQGTLVTVSA
VL: DIQMTQSPASLSVSVGETVTITCRASENIYSHLAWYQQKQGKSPQLLVYAATNLADGVPSRFSGSGSGTQYSLKINSLQSEDFGSYYCQHFWGTPYTFGGGTKLEIKR
B3: δ3-23 (antibody, V domains shown)
VH: EVQLQQSGAELVKPGASVKLSCTASGFNIRDTYMHWVKQRPEQGLEWIGRIDPANGNTKYDPKFRGKATITADTSSNTAYLQLSSLTSEGTAVYYCSEGIYFDYWGQGTTLTVSS
VL: DILLTQSPAILSVSPGERVSFSCRASQNIGTIIHWYQQRANGSPRLLIKYASESISGIPSRFSGSGSGTDFTLSINSVESEDIADYYCQQSNSWPYTFGGGTKLEIKR
B4: δ3-08 (antibody, V domains shown)
VH: EEKLEESGGGLVQPGGSMKLSCVASGFIFSIYWMNWVRQSPEKGLEWVGQIRLKSDNYATHYAESVKGRFTISRDDSKSSVYLQMNNLRAEDTGIYYCMYYGSSYERFAYWGQGTLVTVSA
VL: DIQMIQSPASLSVSVGETVTITCRASENIYSNLAWYQQKQGKSPQLLVYVATKLADGVPSRFSGSGSGTQYSLKINSLQSEDFGSYYCQHFWGTPPWTFGGGTKLEIK

What was measured:
[1] = target: anti-CD20 (Rituxan) chimeric antigen receptor ACT2; test: flow cytometry, panel Donor 3 (δ3-23): cells transduced with the anti-CD20 CAR ACT2, stained with rat anti-Rituximab-FITC; no % sign is printed
[2] = target: anti-CD20 (Rituxan) chimeric antigen receptor ACT2; test: flow cytometry, panel Donor 4 (δ3-08): cells transduced with the anti-CD20 CAR ACT2, stained with rat anti-Rituximab-FITC; no % sign is printed
[3] = target: anti-CD20 (Rituxan) chimeric antigen receptor ACT2; test: flow cytometry, panel Donor 4 (δ3-23): cells transduced with the anti-CD20 CAR ACT2, stained with rat anti-Rituximab-FITC; no % sign is printed
[4] = target: recombinant human soluble γ2 δ3TCR-FC (wild type) (human) (UniProt B7Z8K6); test: Octet, γ2δ3TCR-hFc captured on anti-human Fc biosensor; row antibody δ3-23 taken as first (saturating), column antibody as second; 5 µg/mL each
[5] = target: recombinant human soluble γ2 δ3TCR-FC (wild type) (human) (UniProt B7Z8K6); test: Octet, γ2δ3TCR-hFc captured on anti-human Fc biosensor; row antibody δ3-58 taken as first (saturating), column antibody as second; 5 µg/mL each
[6] = target: recombinant human soluble γ2 δ3TCR-FC (wild type) (human) (UniProt B7Z8K6); test: Octet, γ2δ3TCR-hFc captured on anti-human Fc biosensor; row antibody δ3-42 taken as first (saturating), column antibody as second; 5 µg/mL each; self pair
[7] = target: recombinant human soluble γ2 δ3TCR-FC (wild type) (human) (UniProt B7Z8K6); test: Octet, γ2δ3TCR-hFc captured on anti-human Fc biosensor; row antibody δ3-31 taken as first (saturating), column antibody as second; 5 µg/mL each
[8] = target: γ2δ3 TCR-hFc mutant S5 (D70N, E67Q in the Vδ3 chain) (human) (UniProt B7Z8K6); test: Luminex beads; TCR-hFc captured by goat anti-human Fc; antibody titrated
[9] = target: γ2δ3 TCR-hFc mutant S1 (D10N in the Vδ3 chain) (human) (UniProt B7Z8K6); test: as above
[10] = target: γ2δ3 TCR-hFc mutant S4 (E18Q in the Vδ3 chain) (human) (UniProt B7Z8K6); test: as above
[11] = target: recombinant human soluble γ2 δ3TCR-FC (wild type) (human) (UniProt B7Z8K6); test: as above
[12] = target: γ2δ3 TCR-hFc mutant S6 (R75Q, R95Q in the Vδ3 chain) (human) (UniProt B7Z8K6); test: as above
[13] = target: γ2δ3 TCR-hFc mutant S7 (D57N, R65Q in the Vδ3 chain) (human) (UniProt B7Z8K6); test: as above
[14] = target: γ2δ3 TCR-hFc mutant S2 (D26N, K85L in the Vδ3 chain) (human) (UniProt B7Z8K6); test: as above
[15] = target: γ2δ3 TCR-hFc mutant S8 (K79L, E18Q, H88F in the Vδ3 chain) (human) (UniProt B7Z8K6); test: Luminex beads; TCR-hFc captured by goat anti-human Fc; antibody titrated; extrapolated value, no saturation achieved
[16] = target: γ2δ3 TCR-hFc mutant S3 (K79L, H88F in the Vδ3 chain) (human) (UniProt B7Z8K6); test: as above
[17] = target: γ2δ3 TCR-hFc mutant S10 (K3A, K79L, H88T in the Vδ3 chain) (human) (UniProt B7Z8K6); test: as above
[18] = target: γ2δ3 TCR-hFc mutant S9 (E67Q, D70N, R75Q, R95Q, E97Q in the Vδ3 chain) (human) (UniProt B7Z8K6); test: as above
[19] = target: γ2δ3 TCR-hFc mutant S11 (K79L, L82K, H88F in the Vδ3 chain) (human) (UniProt B7Z8K6); test: as above
[20] = target: recombinant human soluble γ2 δ3TCR-FC (wild type) (human) (UniProt B7Z8K6); test: Octet, γ2δ3TCR-hFc captured on anti-human Fc biosensor; row antibody δ3-08 taken as first (saturating), column antibody as second; 5 µg/mL each
[21] = target: recombinant human soluble γ2 δ3TCR-FC (wild type) (human) (UniProt B7Z8K6); test: Octet, γ2δ3TCR-hFc captured on anti-human Fc biosensor; row antibody δ3-58 taken as first (saturating), column antibody as second; 5 µg/mL each; self pair
[22] = target: γ2δ3 TCR-hFc mutant S9 (E67Q, D70N, R75Q, R95Q, E97Q in the Vδ3 chain) (human) (UniProt B7Z8K6); test: Luminex beads; TCR-hFc captured by goat anti-human Fc; antibody titrated
[23] = target: recombinant human soluble γ2 δ3TCR-FC (wild type) (human) (UniProt B7Z8K6); test: Octet, γ2δ3TCR-hFc captured on anti-human Fc biosensor; row antibody δ3-42 taken as first (saturating), column antibody as second; 5 µg/mL each
[24] = target: recombinant human soluble γ2 δ3TCR-FC (wild type) (human) (UniProt B7Z8K6); test: Octet, γ2δ3TCR-hFc captured on anti-human Fc biosensor; row antibody δ3-23 taken as first (saturating), column antibody as second; 5 µg/mL each; self pair
[25] = target: Vδ3 γδ TCR on the surface of human Vδ3 γδ T cells (PBMC-derived, expanded cultures) (human) (UniProt A0JD37); test: cell-based or functional assay
Sequence of UniProt A0JD37 (A0JD37 19-113, stated change not applied): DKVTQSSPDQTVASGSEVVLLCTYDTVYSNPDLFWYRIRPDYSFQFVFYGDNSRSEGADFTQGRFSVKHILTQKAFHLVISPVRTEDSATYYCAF

[26] = target: Vδ3 γδ TCR on the surface of human Vδ3 γδ T cells (PBMC-derived, expanded cultures) (human) (UniProt A0JD37); test: flow cytometry, upper right panel (δ3-08 Expansion): untransduced Donor 4 cells after αβ T cell depletion, δ3-23 MAb staining (x axis) against anti-TCRαβ (y axis); the gated population lies between about 10^4 and 10^5 on the δ3-23 axis; no % sign is printed
[27] = target: Vδ3 γδ TCR on the surface of human Vδ3 γδ T cells (PBMC-derived, expanded cultures) (human) (UniProt A0JD37); test: flow cytometry on expanded, αβ T cell depleted γδ T cells of Donor 4
[28] = target: Vδ3 γδ TCR on the surface of human Vδ3 γδ T cells (PBMC-derived, expanded cultures) (human) (UniProt A0JD37); test: flow cytometry, lower right panel (δ3-23 Expansion): untransduced Donor 4 cells after αβ T cell depletion, δ3-23 MAb staining (x axis) against anti-TCRαβ (y axis); the gated population lies between about 10^4 and 10^5 on the δ3-23 axis; no % sign is printed
[29] = target: γ2δ3 TCR-hFc mutant S8 (K79L, E18Q, H88F in the Vδ3 chain) (human) (UniProt B7Z8K6); test: Luminex beads; TCR-hFc captured by goat anti-human Fc; antibody titrated
[30] = target: γ2δ3 TCR-hFc mutant S3 (K79L, H88F in the Vδ3 chain) (human) (UniProt B7Z8K6); test: as above
[31] = target: γ2δ3 TCR-hFc mutant S10 (K3A, K79L, H88T in the Vδ3 chain) (human) (UniProt B7Z8K6); test: as above
[32] = target: γ2δ3 TCR-hFc mutant S11 (K79L, L82K, H88F in the Vδ3 chain) (human) (UniProt B7Z8K6); test: as above
[33] = target: recombinant human soluble γ2 δ3TCR-FC (wild type) (human) (UniProt B7Z8K6); test: Octet, γ2δ3TCR-hFc captured on anti-human Fc biosensor; row antibody δ3-08 taken as first (saturating), column antibody as second; 5 µg/mL each; self pair

| Molecule | paired-competition value (Octet signal of the second antibody per paragraph 256) [4] | paired-competition value (Octet signal of the second antibody per paragraph 256) [5] | paired-competition value (Octet signal of the second antibody per paragraph 256) [7] | EC50 [8] [nM] | EC50 [9] [nM] | EC50 [10] [nM] | EC50 [11] [nM] | EC50 [12] [nM] | EC50 [13] [nM] | EC50 [14] [nM] | EC50 [15] [nM] | EC50 [16] [nM] | EC50 [17] [nM] | EC50 [19] [nM] | paired-competition value (Octet signal of the second antibody per paragraph 256) [20] | EC50 [22] [nM] | paired-competition value (Octet signal of the second antibody per paragraph 256) [23] | further results |
| --- | --- | --- | --- | --- | --- | --- | --- | --- | --- | --- | --- | --- | --- | --- | --- | --- | --- | --- |
| aRitxmab-FITC (antibody) |  |  |  |  |  |  |  |  |  |  |  |  |  |  |  |  |  | percent of cells in the CAR+ gate [1]: 83.1%; percent of cells in the CAR+ gate [2]: 70.7%; percent of cells in the CAR+ gate [3]: 73.5% |
| B1 | 0.04 | 0.03 | 0.35 | 0.08 | 0.07 | 0.05 | 0.05 | 0.13 | 0.15 | 0.17 | 258 | 106 | 449 | 199 | 0.21 |  |  | paired-competition value (Octet signal of the second antibody per paragraph 256) [6]: 0.04; EC50 [18]: 49.3 nM |
| B2 | 0.03 |  | 0.37 | 0.02 | 0.02 | 0.02 | 0.03 | 0.02 | 0.04 | 0.03 | 3370 | 508 | 336 | 136 | 0.22 | 0.05 | 0.06 | paired-competition value (Octet signal of the second antibody per paragraph 256) [21]: 0.03 |
| B3 |  | 0.07 | 0.48 | 0.04 | 0.04 | 0.06 | 0.04 | 0.04 | 0.04 | 0.04 | 95.8 | 137 | 117 | 112 | 0.29 | 0.05 | 0.12 | paired-competition value (Octet signal of the second antibody per paragraph 256) [24]: 0.06; share of non-Vδ1/non-Vδ2 γδ T cells in the culture on Day 21, Donor 1 [25]: < 41%; percent of cells in the Vd3+ gate [26]: 95.5%; % of non-Vδ1/non-Vδ2 cells stained positive [27]: > 95%; percent of cells in the Vd3+ gate [28]: 95% |
| B4 | 0.04 | 0.04 | 0.24 | 0.05 | 0.08 | 0.06 | 0.06 | 0.06 | 0.07 | 0.07 |  |  |  |  |  | 0.07 |  | EC50 [29]: 0.04 nM; EC50 [30]: 0.05 nM; EC50 [31]: 2.5 nM; EC50 [32]: 0.03 nM; paired-competition value (Octet signal of the second antibody per paragraph 256) [33]: 0.16 |
